± gives the standard deviation of the averaged measurements.
The sequences below were run on ATP (assay: switch fluorescence ratio, 500 uM ATP over buffer (Cy3 cluster intensity, sum of 5 cycles each) (fold (ratio)); higher = stronger signal-on switching upon ATP binding; sequences stand for … in TCGTCGGCAGCGTCAGATGTGTATAAGAGACAGTTTTTTTTTTTTTTTTTTTTTTTTT…TC). Conditions: aptamer strand: ATP DNA aptamer (quencher-CACCTGGGGGAGTATTGCGGAGGAAGG + anchor), 100 nM annealed; ATP concentration: 500 uM.
Method in brief: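 Five buffer/ATP imaging cycles were run on Cy3-labelled switching-strand clusters on a modified Illumina MiSeq flow-cell, with NaOH stripping and re-annealing between cycles. In each cycle, clusters annealed to 100 nM quencher-labelled ATP aptamer were imaged in selection buffer, then after 15 min with 500 uM ATP at 22 °C. Per cluster, the fluorescence ratio is summed target-cycle over summed buffer-cycle Cy3 intensity, averaged per switch-domain sequence. Only clusters within 100-1000 RFU were kept.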
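Note: ATP exposure 15 min at 22 °C before imaging.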

Row | Sequence | switch fluorescence ratio
1 | AAATGGTGGG | 1.13 ± 0.16
2 | AAATGTATGT | 0.988 ± 0.037
3 | AAATGTGCTG | 1 ± 0.024
4 | AAATGTGGGG | 0.976 ± 0.049
5 | AAATGTGTAG | 0.977 ± 0.024
6 | AAATGTTCAC | 0.996 ± 0.034
7 | AAATGTTTTT | 0.999 ± 0.028
8 | AAATTAGCTT | 0.987 ± 0.084
9 | AAATTATCGG | 1 ± 0.042
10 | AAATTCAATA | 1.002 ± 0.0033
11 | AAATTCCGGG | 1.02 ± 0.035
12 | AAATTCCTAC | 1.01 ± 0.015
13 | AAATTCGAAG | 0.982 ± 0.011
14 | AAATTCGCGT | 1.01 ± 0.015
15 | AAATTCGGGG | 0.959 ± 0.037
16 | AAATTCGTTA | 0.983 ± 0.048
17 | AAATTGAACT | 1.03 ± 0.017
18 | AAATTGCGAG | 1.005 ± 0.0033
19 | AAATTGCGGG | 0.994 ± 0.048
20 | AAATTGCTTA | 1 ± 0.024
21 | AAATTGGAAG | 1.05 ± 0.078
22 | AAATTGGGAG | 1.016 ± 0.0026
23 | AAATTGTTG | 1.022 ± 0.0087
24 | AAATTTACCG | 1.05 ± 0.015
25 | AAATTTAGTA | 0.99 ± 0.018

Row | Sequence | switch fluorescence ratio
26 | AAATTTTTCT | 1.05 ± 0.07
27 | AAATTTTTTT | 0.996 ± 0.054
28 | AACAAGGGGG | 1.01 ± 0.013
29 | AACACAGCTC | 1.02 ± 0.024
30 | AACACCTCTC | 1.1 ± 0.07
31 | AACACGGGTA | 1.02 ± 0.055
32 | AACAGAGTTT | 1.02 ± 0.026
33 | AACAGCGGGA | 1.08 ± 0.068
34 | AACAGCGGGC | 1.03 ± 0.084
35 | AACAGCTGTG | 0.998 ± 0.013
36 | AACAGGAAGC | 1.01 ± 0.017
37 | AACAGGGCAC | 1.018 ± 0.0051
38 | AACAGGGGGG | 1.02 ± 0.081
39 | AACAGTAGGG | 1.03 ± 0.012
40 | AACAGTGTAT | 1.01 ± 0.03
41 | AACAGTTGAA | 1.0083 ± 0.00099
42 | AACATGTTGG | 0.991 ± 0.047
43 | AACCACTCAT | 1.02 ± 0.053
44 | AACCAGTATA | 0.995 ± 0.024
45 | AACCATTTGG | 0.9825 ± 0.0046
46 | AACCGATGCT | 1.094 ± 0.005
47 | AACCGATGTG | 1.01 ± 0.037
48 | AACCGGTAAT | 1.01 ± 0.022
49 | AACCGGTTAG | 0.996 ± 0.011
50 | AACCGTAGTC | 1.15 ± 0.049

Row | Sequence | switch fluorescence ratio
51 | AACCGTGTGT | 0.994 ± 0.013
52 | AACCGTTTTG | 0.979 ± 0.011
53 | AACCTGGGCC | 1.19 ± 0.099
54 | AACCTTGTCC | 1.61 ± 0.11
55 | AACCTTTTCA | 1.067 ± 0.0026
56 | AACCTTTTTA | 1.01 ± 0.045
57 | AACGAAAGGC | 1.19 ± 0.012
58 | AACGAGGGTC | 1.01 ± 0.049
59 | AACGAGTGTC | 1.09 ± 0.11
60 | AACGATCTTT | 0.9979 ± 0.0084
61 | AACGCGCGCC | 1.01 ± 0.05
62 | AACGCGGTAT | 1.03 ± 0.095
63 | AACGGAGTGG | 1 ± 0.042
64 | AACGGATCGG | 0.998 ± 0.025
65 | AACGGATGAG | 0.987 ± 0.038
66 | AACGGCCATG | 1.02 ± 0.037
67 | AACGGCGTGA | 1.08 ± 0.14
68 | AACGGCTCTT | 1.03 ± 0.074
69 | AACGGGGCTC | 1.04 ± 0.066
70 | AACGGGGGA | 0.9916 ± 0.0024
71 | AACGGGTCTA | 1.01 ± 0.035
72 | AACGGGTGCA | 0.9896 ± 0.0011
73 | AACGGTAGTG | 1.09 ± 0.03
74 | AACGGTGATT | 1.01 ± 0.07
75 | AACGGTGTTT | 1.03 ± 0.045

Row | Sequence | switch fluorescence ratio
76 | AACGTCTTTG | 0.9977 ± 0.0033
77 | AACGTGTACG | 1.01 ± 0.065
78 | AACGTTAAAT | 1.01 ± 0.037
79 | AACGTTAGGG | 0.998 ± 0.029
80 | AACGTTCCTG | 1.35 ± 0.11
81 | AACGTTGGTA | 0.989 ± 0.034
82 | AACTAATCGC | 1.03 ± 0.029
83 | AACTACTTTG | 1 ± 0.03
84 | AACTAGAGTT | 0.99 ± 0.014
85 | AACTATAAAA | 1 ± 0.014
86 | AACTATCTTT | 1.04 ± 0.033
87 | AACTATGATG | 0.996 ± 0.03
88 | AACTATGGTA | 0.992 ± 0.033
89 | AACTCACTTT | 1.09 ± 0.02
90 | AACTCAGATT | 1.01 ± 0.026
91 | AACTCAGGGG | 1.29 ± 0.067
92 | AACTCATATT | 0.959 ± 0.013
93 | AACTCGACCC | 1.05 ± 0.05
94 | AACTGACGGA | 1.14 ± 0.026
95 | AACTGCAAGT | 0.993 ± 0.027
96 | AACTGCTGTA | 0.999 ± 0.02
97 | AACTGGACTT | 1.11 ± 0.042
98 | AACTGGGAGA | 0.98933 ± 0.0002
99 | AACTGGGGA | 0.967 ± 0.015
100 | AACTGGGGC | 0.959 ± 0.062

Reference: the supplement of paper PMC10126150
